The text below walks through data of US20240400657A1 (MorphoSys, published 2024).

In one assay the target is T1, Protein A.
T1 construct: control of the 3P panel
As to the kind of experiment: Protein Panel Profiling (3P), MSD ECL, coated antigen, IgG 100 nM.

A further assay deals with T2, Fc (h).
T2 construct: '(h)' on the sheet read as human
The assay is described as above.

The next assay has as its target Pepsinogen. The description is as above.
Another assay addresses Amyloglycosidase. The description is as above.
The target in a further assay is Trypsin inhibitor. Described as above.
Another assay deals with Cytochrome C. Described as above.
In the next assay the target is Myoglobin. Described as above.
The target of a further assay is Lectin. The description is as above.
A further assay has as its target Ovalbumin. The assay is described as above.
Another assay has as its target Trypsinogen. The assay is described as above.
In the next assay the target is RNase B. Described as above.
The next assay addresses T3, Serum albumin (h) (human).
T3 construct: '(h)' on the sheet read as human
Described as above.

For the next assay, the target named is Lysozyme. The description is as above.
A further assay has as its target T4, anti-human Fab (Dianova).
T4 construct: control of the 3P panel; it captures human IgG as such, so a ratio of 1 means a signal equal to that of MOR03207
The description is as above.

The next assay deals with T5, anti-human Fc.
T5 construct: control of the 3P panel; it captures human IgG as such, so a ratio of 1 means a signal equal to that of MOR03207
The description is as above.

In another assay the target is T6, Hemoglobin (h) (human).
T6 construct: '(h)' on the sheet read as human
Described as above.

Another assay concerns the target Antitrypsin. Described as above.
Assay [1] concerns the target T7, Cell surface rec. 1_Lys (h).
T7 construct: identity not disclosed
The assay is described as above.
Experimental: (§1) 32 different proteins and controls were coated on two 384-well MSD standard plates at a concentration of 1.0 μg/mL at 4° C. over night. The coating solution was discarded and plates were blocked with 50 μL 3% (w/v) BSA in PBS for one hour at RT on a microtiter plate shaker (˜500 rpm) followed by three washing steps with 50 μL washing buffer (PBS with 0.05% (v/v) Tween 20). IgG samples were diluted to 100 nM and 10 nM in assay buffer (PBS with 0.5% (w/v) BSA, 0.05% (v/v) Tween 20). As controls, isotype control antibody MOR03207 (IgG1f_AEASS) and assay buffer were used. Samples and controls were added at 30 μL/well and incubated for three hours at RT on a microtiter plate shaker. The plates were washed three times and 30 μL detection antibody (ECL-labeled anti-human Fab) were added per well and incubated for one hour on a microtiter plate shaker (˜500 rpm). After washing the MSD plate and adding 35 μL/well MSD Read Buffer T with surfactant, electro-chemiluminescence signals were detected using a SECTOR® Imager S600 instrument (Meso Scale Diagnostics).
(§2) For evaluation, binding signals of the antibody sample to a certain protein were divided by the respective binding signals of the reference antibody MOR03207 resulting in a binding ratio (BR). The cumulative binding ratio (CBR) of all proteins except the controls (25 in total) was then calculated: CBR up to 150 indicates an IgG without detectable unspecific binding. Values above 150 indicates an IgG with increased unspecific binding compared to the reference antibody MOR03207.

The target in assay [2] is T8, Cell surface rec. 2_Fc (h).
T8 construct: identity not disclosed
Described as above.
Experimental: as §1, §2

Assay [3] deals with T9, Cell surface rec. 3_Fc (h).
T9 construct: identity not disclosed
Described as above.
Experimental: as §1, §2

A further assay concerns the target GFP. Described as above.
Assay [4] concerns the target T10, human C5aR_NT-bio peptide (human, biotin tag (position not given)).
T10 construct: Chemically synthesized linear peptide (Genscript); also called human C5aR N-terminal peptide; human C5aR peptide
T10 peptide: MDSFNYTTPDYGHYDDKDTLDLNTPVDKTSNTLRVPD
The description is as above.

Assay [5] deals with T11, full length rat C5aR stably expressed on CHO Flp-In cells (rat (Rattus norvegicus), UniProt P97520 1-352).
T11 sequence: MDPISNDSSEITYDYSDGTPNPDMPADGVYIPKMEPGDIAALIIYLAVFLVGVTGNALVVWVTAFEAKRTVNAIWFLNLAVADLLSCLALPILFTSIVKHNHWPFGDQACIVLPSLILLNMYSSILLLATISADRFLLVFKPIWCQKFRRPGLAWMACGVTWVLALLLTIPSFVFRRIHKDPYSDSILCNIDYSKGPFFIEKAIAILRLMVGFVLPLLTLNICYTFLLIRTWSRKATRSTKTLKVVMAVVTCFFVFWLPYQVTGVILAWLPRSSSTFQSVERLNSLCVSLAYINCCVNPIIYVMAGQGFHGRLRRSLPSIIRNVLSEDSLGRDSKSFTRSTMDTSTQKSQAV
As to the kind of experiment: FACS, CHO Flp-In cells expressing rat C5aR, single IgG concentration.

For assay [6], the target named is T12, full-length human FPR1 expressed on CHO Flp-In cells (human, UniProt P21462 1-350).
T12 construct: also called fMet-Leu-Phe receptor
T12 chain: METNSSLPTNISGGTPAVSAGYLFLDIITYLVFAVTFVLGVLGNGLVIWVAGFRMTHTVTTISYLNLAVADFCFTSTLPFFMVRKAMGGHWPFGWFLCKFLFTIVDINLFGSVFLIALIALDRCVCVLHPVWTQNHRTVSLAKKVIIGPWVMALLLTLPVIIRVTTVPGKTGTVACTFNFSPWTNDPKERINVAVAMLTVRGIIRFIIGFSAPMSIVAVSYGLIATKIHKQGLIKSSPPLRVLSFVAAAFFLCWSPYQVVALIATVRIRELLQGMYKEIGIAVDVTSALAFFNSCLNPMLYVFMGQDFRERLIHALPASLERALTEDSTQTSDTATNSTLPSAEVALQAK
As to the kind of experiment: FACS, CHO Flp-In cells expressing human FPR1, single IgG concentration.

Chain of Lysozyme (P00698 19-147): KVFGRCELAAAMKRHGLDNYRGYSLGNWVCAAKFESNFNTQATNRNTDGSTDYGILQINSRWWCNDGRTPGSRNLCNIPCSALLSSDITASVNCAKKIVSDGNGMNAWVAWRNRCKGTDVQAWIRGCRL
T3 sequence (P02768 25-609): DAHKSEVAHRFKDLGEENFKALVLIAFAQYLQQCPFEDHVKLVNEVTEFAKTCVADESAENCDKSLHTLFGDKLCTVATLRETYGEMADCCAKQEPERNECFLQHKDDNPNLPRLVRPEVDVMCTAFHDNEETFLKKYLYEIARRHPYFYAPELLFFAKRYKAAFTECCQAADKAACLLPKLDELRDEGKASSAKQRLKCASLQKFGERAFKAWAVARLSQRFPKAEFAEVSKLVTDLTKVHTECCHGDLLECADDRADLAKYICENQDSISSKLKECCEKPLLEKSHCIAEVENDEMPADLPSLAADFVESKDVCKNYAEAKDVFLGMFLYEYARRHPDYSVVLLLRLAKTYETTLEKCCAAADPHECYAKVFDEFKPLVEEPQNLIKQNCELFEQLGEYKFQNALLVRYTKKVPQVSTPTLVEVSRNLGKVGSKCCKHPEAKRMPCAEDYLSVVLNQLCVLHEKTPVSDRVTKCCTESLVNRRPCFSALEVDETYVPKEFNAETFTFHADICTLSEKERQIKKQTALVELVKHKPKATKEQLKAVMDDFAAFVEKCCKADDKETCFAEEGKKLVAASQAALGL
Chain of RNase B (P61823 27-150): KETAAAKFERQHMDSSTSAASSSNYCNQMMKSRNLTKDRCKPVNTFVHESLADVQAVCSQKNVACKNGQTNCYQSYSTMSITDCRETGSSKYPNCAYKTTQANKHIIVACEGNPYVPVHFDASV
T6 sequence (P69905 2-142, chain 1 of 2): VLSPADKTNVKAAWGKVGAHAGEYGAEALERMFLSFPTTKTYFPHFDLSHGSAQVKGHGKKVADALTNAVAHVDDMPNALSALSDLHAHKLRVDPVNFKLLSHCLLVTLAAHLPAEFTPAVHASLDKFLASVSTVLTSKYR
T6 sequence (P68871 2-147, chain 2 of 2, further chain): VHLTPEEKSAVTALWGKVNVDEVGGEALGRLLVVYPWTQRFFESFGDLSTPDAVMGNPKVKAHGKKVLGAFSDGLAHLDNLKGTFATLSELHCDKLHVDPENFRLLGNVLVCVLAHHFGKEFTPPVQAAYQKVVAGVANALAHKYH
Chain of Ovalbumin (P01012 2-386): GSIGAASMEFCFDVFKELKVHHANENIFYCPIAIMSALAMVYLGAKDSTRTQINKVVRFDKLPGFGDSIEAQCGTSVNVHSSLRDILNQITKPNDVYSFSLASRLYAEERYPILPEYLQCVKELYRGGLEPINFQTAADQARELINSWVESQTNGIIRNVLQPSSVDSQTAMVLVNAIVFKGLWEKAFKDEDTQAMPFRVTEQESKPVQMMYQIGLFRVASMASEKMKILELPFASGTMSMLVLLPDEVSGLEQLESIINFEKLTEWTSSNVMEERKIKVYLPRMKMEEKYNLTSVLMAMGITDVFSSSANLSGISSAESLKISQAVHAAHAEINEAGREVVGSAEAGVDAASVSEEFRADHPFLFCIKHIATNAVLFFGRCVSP
Experimental for Amyloglycosidase: as §1, §2
Experimental for Antitrypsin: as §1, §2
Experimental for Cytochrome C: as §1, §2
Experimental for GFP: as §1, §2
Experimental for Hemoglobin (h): as §1, §2
Experimental for Lectin: as §1, §2
Experimental for Lysozyme: as §1, §2
Experimental for Myoglobin: as §1, §2
Experimental for Ovalbumin: as §1, §2
Experimental for Pepsinogen: as §1, §2
Experimental for Protein A: as §1, §2
Experimental for RNase B: as §1, §2
Experimental for Serum albumin (h): as §1, §2
Experimental for Trypsin inhibitor: as §1, §2
Experimental for Trypsinogen: as §1, §2
Experimental for anti-human Fab (Dianova): as §1, §2
Experimental for anti-human Fc: as §1, §2

B1: MAB #2 (antibody, human IgG1, lambda)
heavy: EVQLVESGGGLVKPGGSLRLSCAASGFTFSSYAMHWVRQAPGKGLEWVGRIKSVAQGGTTDYAAHVKGRFTISRDDSKNTLYLQMNSLKTEDTAVYYCARVSHSTFDVWGQGTLVTVSSASTKGPSVFPLAPSSKSTSGGTAALGCLVKDYFPEPVTVSWNSGALTSGVHTFPAVLQSSGLYSLSSVVTVPSSSLGTQTYICNVNHKPSNTKVDKRVEPKSCDKTHTCPPCPAPEAEGAPSVFLFPPKPKDTLMISRTPEVTCVVVDVSHEDPEVKFNWYVDGVEVHNAKTKPREEQYNSTYRVVSVLTVLHQDWLNGKEYKCKVSNKALPSSIEKTISKAKGQPREPQVYTLPPSREEMTKNQVSLTCLVKGFYPSDIAVEWESNGQPENNYKTTPPVLDSDGSFFLYSKLTVDKSRWQQGNVFSCSVMHEALHNHYTQKSLSLSPGK
light: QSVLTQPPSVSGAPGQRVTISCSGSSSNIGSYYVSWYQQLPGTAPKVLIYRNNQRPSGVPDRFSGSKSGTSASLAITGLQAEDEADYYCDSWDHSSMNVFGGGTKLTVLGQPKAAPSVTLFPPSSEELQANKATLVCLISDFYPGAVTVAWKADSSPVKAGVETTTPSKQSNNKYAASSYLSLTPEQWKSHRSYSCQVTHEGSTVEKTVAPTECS
notes: lambda 1 light chain
For B1, the “binding ratio (signal / signal of MOR03207)” value with Protein A is 1; with Fc (h), 3; in the assay with Pepsinogen, 5; with Amyloglycosidase, 2; with Trypsin inhibitor, 7; in the assay with Cytochrome C it was 2. Also, the “binding ratio (signal / signal of MOR03207)” value with Myoglobin is 2; in the assay with Lectin it was 2; with Ovalbumin, 4; in the assay with Trypsinogen it was 2; with RNase B, 2; with Serum albumin (h) it was 2. Besides, the “binding ratio (signal / signal of MOR03207)” value with Lysozyme is 2; with anti-human Fab (Dianova) it was 1; with anti-human Fc it was 1; with Hemoglobin (h), 2; in the assay with Antitrypsin, 2; in [1] it was 2. Further, the “binding ratio (signal / signal of MOR03207)” value in assay [2] stood at 2; in [3], 2; with GFP, 2; in assay [4], 49. Moreover, the binding result in [5] and in assay [6] was “no binding (tested: 300 nM)” throughout.

B2: MAB #1 (antibody, human IgG1, lambda)
heavy: EVQLVESGGGLVKPGGSLRLSCAASGFTFSSYAMHWVRQAPGKGLEWVGRIKSKAQGGTTDYAAHVKGRFTISRDDSKNTLYLQMNSLKTEDTAVYYCARVSFSTFDVWGQGTLVTVSSASTKGPSVFPLAPSSKSTSGGTAALGCLVKDYFPEPVTVSWNSGALTSGVHTFPAVLQSSGLYSLSSVVTVPSSSLGTQTYICNVNHKPSNTKVDKRVEPKSCDKTHTCPPCPAPEAEGAPSVFLFPPKPKDTLMISRTPEVTCVVVDVSHEDPEVKFNWYVDGVEVHNAKTKPREEQYNSTYRVVSVLTVLHQDWLNGKEYKCKVSNKALPSSIEKTISKAKGQPREPQVYTLPPSREEMTKNQVSLTCLVKGFYPSDIAVEWESNGQPENNYKTTPPVLDSDGSFFLYSKLTVDKSRWQQGNVFSCSVMHEALHNHYTQKSLSLSPGK
light: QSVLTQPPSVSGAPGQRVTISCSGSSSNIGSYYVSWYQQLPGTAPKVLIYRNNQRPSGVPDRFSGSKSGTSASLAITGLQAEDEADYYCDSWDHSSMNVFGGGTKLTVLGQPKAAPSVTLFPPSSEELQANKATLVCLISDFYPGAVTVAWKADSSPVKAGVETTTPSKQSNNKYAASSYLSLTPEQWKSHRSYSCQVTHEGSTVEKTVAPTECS
notes: lambda 1 light chain, VH3-15 framework
B2: the “binding ratio (signal / signal of MOR03207)” value with Protein A was 1; with Fc (h), 2; with Pepsinogen, 4; in the assay with Amyloglycosidase it was 3; with Trypsin inhibitor, 5; with Cytochrome C, 2. Also, the “binding ratio (signal / signal of MOR03207)” value in the assay with Myoglobin, with Lectin, with Ovalbumin, with Trypsinogen, in the assay with RNase B and with Serum albumin (h) was 2 in each case. The “binding ratio (signal / signal of MOR03207)” value is 2 with Lysozyme; 1 in the assay with anti-human Fab (Dianova); 1 in the assay with anti-human Fc; 2 with Hemoglobin (h); 2 in the assay with Antitrypsin; 2 in assay [1]. Further, the “binding ratio (signal / signal of MOR03207)” value in [2] came out at 2; in assay [3], 2; with GFP it was 2; in [4] it was 84. Besides, the binding result in assay [5] and in [6] was “no binding (tested: 300 nM)” in each case.
